{
  "source": "patent US20100021490A1",
  "about": "(INSTITUT NATIONAL DE LA RECHERCHE AGRONOMIQUE INRA, published 2010)",
  "binders": {"B1": {"name": "PΔ457N (C-terminal fragment of the measles virus P protein with the N-terminal portion deleted up to residue 456 inclusive) (other, not shown: a dimerising Fc or GST)", "chain": "GPASRSVIRSIIKSSRLEEDRKRYLMTLLDDIKGANDLAKFHQMLMKIIMK", "notes": "also called measles PΔ457N"}},
  "biological_target": "T1, N protein of measles virus (Edmonston B strain) (measles virus, Edmonston B strain, UniProt P0DXN6 1-525, limits assumed)",
  "T1 construct": "The construct is not described; also called measles virus N protein",
  "T1 sequence": "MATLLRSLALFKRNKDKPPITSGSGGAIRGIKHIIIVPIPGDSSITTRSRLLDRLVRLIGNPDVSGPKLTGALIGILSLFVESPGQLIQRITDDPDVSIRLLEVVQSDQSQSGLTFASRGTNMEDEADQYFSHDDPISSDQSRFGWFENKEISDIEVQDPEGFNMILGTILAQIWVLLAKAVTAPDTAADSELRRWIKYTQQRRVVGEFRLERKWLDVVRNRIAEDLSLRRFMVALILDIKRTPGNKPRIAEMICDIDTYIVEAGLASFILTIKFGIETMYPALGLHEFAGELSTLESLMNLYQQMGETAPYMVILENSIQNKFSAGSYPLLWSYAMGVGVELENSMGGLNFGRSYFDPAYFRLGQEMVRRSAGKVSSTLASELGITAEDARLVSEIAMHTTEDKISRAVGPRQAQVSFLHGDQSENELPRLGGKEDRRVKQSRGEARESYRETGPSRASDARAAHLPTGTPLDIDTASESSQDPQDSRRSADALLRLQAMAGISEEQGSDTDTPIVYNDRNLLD",
  "test": "coexpression of the P fragment with N, co-purification",
  "data": [
    {"binder": "B1", "values": [
      {"measurement": "binding result", "result": "no binding"}
    ]}
  ]
}
